Where a chain is given by its changes, count along the chain named. Read-outs that look alike come from different tables or passages of the source. One block for each binder: values may come before it.
What was measured:
Test in all cases: FACS
[1] = target: T1, cynomolgus macaque PVRIG expressed on HEK293 cells (cynomolgus macaque, UniProt A0A2K5WVV8 1-322)
T1 chain: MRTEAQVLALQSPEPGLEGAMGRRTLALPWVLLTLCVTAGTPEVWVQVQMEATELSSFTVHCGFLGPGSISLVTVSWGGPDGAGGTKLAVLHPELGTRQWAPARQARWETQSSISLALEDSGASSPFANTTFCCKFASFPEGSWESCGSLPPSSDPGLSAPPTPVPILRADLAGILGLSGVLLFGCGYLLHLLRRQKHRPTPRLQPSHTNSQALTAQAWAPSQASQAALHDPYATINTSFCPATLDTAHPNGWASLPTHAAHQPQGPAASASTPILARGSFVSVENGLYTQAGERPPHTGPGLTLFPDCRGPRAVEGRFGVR

cynomolgus TIGIT [2] = target: T2, cynomolgus TIGIT (cynomolgus macaque, UniProt A0A7N9I9V4 89-209)
mouse TIGIT = target: T3, mouse TIGIT (mouse, UniProt P86176 29-148)
T3 chain: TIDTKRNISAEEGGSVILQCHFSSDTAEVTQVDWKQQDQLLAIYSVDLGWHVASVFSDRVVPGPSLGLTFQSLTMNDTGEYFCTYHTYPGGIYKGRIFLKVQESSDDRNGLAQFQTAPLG

cynomolgus TIGIT [3] = target: T2, cynomolgus TIGIT; remark: listed apart in the source
TIGIT [4] = target: T4, TIGIT (human, UniProt Q495A1 22-141)
T4 chain: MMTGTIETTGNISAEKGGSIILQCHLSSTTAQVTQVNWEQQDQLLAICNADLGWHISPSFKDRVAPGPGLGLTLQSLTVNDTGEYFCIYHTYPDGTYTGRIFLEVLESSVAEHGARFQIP

TIGIT [5] = target: T4, TIGIT
[6] = target: T1, cynomolgus macaque PVRIG expressed on …

T2 sequence (A0A7N9I9V4 entry or part of it): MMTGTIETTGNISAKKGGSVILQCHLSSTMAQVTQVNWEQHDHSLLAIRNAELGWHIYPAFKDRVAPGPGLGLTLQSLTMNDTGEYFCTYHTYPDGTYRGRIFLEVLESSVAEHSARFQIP

B1: CHA.7.518.1 (antibody, V domains shown)
VH: QVQLVQSGAEVKKPGASVKVSCKASGYTFTDYNINWVRQAPGQGLEWMGYIYPYIGGSGYAQKFQGRVTMTRDTSTSTVYMELSSLRSEDTAVYYCAREDKTARNAMDYWGQGTLVTVSS
VL: DIQMTQSPSSLSASVGDRVTITCRVSENIYSNLAWYQQKPGKAPKLLIYEATNLAEGVPSRFSGSGSGTDFTLTISSLQPEDFATYYCQHFWGTPYTFGQGTKLEIKR
- Kd [1]: 0.35 nM

B2: BM26 (antibody, V domains shown)
VH: EVQLQQSGPELVKPGSSVKMSCKASGYTFSSYVMHWVKQKPGQGLEWIGYIDPYNDGAKYNEKFKGKATLTSDKSSSTAYMELSSLTSEDSAVYYCARGGPYGWYFDVWGAGTTVTVSS
VL: DIQMTQSPASLSASVGETVTITCRASEHIYSYLSWYQQKQGKSPQLLVYNAKTLAEGVPSRFSGSGSGTQFSLKINSLQPEDFGTYYCQHHFGSPLTFGAGTTLELKR
- Kd (cynomolgus TIGIT [2]): 1.69 nM

B6: CHA.9.547.7 (antibody, V domains shown)
VH: EVQLVESGGGLVQPGGSLRLSCAASGFTFSSYIMSWVRQAPGKGLEWVSTISGGGTNTYYADSVKGRFTISRDNSKNTLYLQMNSLRAEDTAVYYCAKWLLSYYAMDYWGQGTLVTVSS
VL: DIQMTQSPSSLSASVGDRVTITCRASQNINVWLTWYQQKPGKAPKLLIYKASKSHTGVPSRFSGSGSGTDFTLTISSLQPEDFATYYCQQGQSYPYTFGQGTKLEIKR
- Kd (cynomolgus TIGIT [2]): 1.54 nM
- Kd (TIGIT [5]): 1.82 nM

Second part, the binder after the results:

- Kd (mouse TIGIT): 0.7 nM
B3: CPA.9.083 (antibody, V domains shown)
VH: EVQLVETGGGLIQPGRSLRLSCAASGFTFSSYAMHWVRQAPGKGLEWVAVISYDGTPVYYADSVKGRFTISRDNSKNTLYLQMNSLRAEDTAVYYCARDPLPLHYYGMDVWGQGTTVTVSS
VL: QSALTQPRSASGNPGQRVTISCSGSSSNMGRRPVNWYQQIPGTAPKLLIYSQNQRPSGVPDRFSGSQSGTSASLTISGLQSEDEAEYFCAVWDGDRRSLQLGGGTQLAVLG

- Kd (mouse TIGIT): 1.32 nM
B4: CPA.9.086 (antibody, V domains shown)
VH: B3 VH with D54A, T56E, P57V, V58K
VL: B3 VL with G94D, D95I, R96G, S98V

- Kd (cynomolgus TIGIT [3]): 1.67 nM
- Kd (TIGIT [4]): 0.71 nM
B5: CPA.9.547.13 (antibody, V domains shown)
VH: B6 VH with S49A
VL: B6 VL with V19I

- Kd [6]: 0.248 nM
B7: PVRIG (COM701) (antibody, V domains shown)
VH: QVQLVQSGAEVKKPGASVKVSCKASGYAFTNYLIEWVRQAPGQGLEWIGVINPGSGGIYYAQKFQGRVTMTADTSTSTVYMELSSLRSEDTAVYYCARSETHDTWFAYWGQGTLVTVSS
VL: DIQMTQSPSSLSASVGDRVTITCKASQSVRIAVAWFQQKPGKAPKALIYLASTRHTGVPSRFSGSGSGTDFTLTISSVQPEDFATYYCLQHWNYPYTFGQGTKLEIKR

Reference: US20250136710A1 (published 2025)
